Experiment [1] addresses ST50, outer-membrane protein of the multi-drug efflux system from Salmonella enterica serovar Typhi (Salmonella enterica serovar Typhi). Nature of the experiment: SEC; Superdex 200 10/30 GL; Tris 20 mM pH 7.5, NaCl 150 mM, β-DDM 0.2%; major fraction at about 220 kDa (trimer plus detergent micelle).
Experiment [2] shares this target. Nature of the experiment: crystal structure; ST50 crystallised by hanging-drop vapor diffusion; sodium acetate 100 mM pH 4.6, NaCl 86 mM, PEG 8000 10.4%, β-OG 0.4%, 18 °C; 2.98 Å; three protomers per asymmetric unit.

As to “ST50, outer-membrane protein of the multi-drug efflux system from Salmonella enterica serovar Typhi (natural protein)”, the stoichiometry N in experiment [1] and in experiment [2] was 3 each time.

The values are drawn from article PMC4643347.
